Results reported in PMC3458019.

Assay: mouse liver sections 10 min after injection, anti-FX/CD68 staining
Conditions: glycan lost; control: pd-FX

Factor X (FX): PNGase F (N-degly-FX)
localisation_or_trafficking: changes, the localization of FX was predominantly to hepatocytes
